Results from US20080280333.

Target: T1, GlxR (Corynebacterium glutamicum) (UniProt Q79VI7)
T1 sequence: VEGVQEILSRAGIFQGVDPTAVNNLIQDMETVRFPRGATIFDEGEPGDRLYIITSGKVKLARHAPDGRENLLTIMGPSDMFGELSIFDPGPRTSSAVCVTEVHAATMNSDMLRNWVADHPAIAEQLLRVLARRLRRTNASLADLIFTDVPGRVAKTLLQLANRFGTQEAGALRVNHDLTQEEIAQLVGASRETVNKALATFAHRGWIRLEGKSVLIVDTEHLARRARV
Assay: cell_activity

PaceB-lacZYA reporter (aceB promoter region)
activity (mU beta-galactosidase) (E. coli DH5alphaF'-145 with pSL145, 27 mU with empty vector pMT1, repression): 2.5
activity (beta-galactosidase activity) (E. coli HL994, chromosomal PaceB-lacZYA, 237 with empty vector): 128
